For 34 variants, abundance fitness results are on record in the Human Domainome abundance scans (Beltran et al. 2025).

± gives the uncertainty stated by the source.

To fix the notation:
B1: POU domain, class 4, transcription factor 1, residues 266 to 347; numbered along this chain, Q01851 (parent)
chain: RELEAFAERFKQRRIKLGVTQADVGSALANLKIPGVGSLSQSTICRFESLTLSHNNMIALKPILQAWLEEAEGAQREKMNKP

In the series the parent is B1. Briefly: abundance fitness (aPCA) (normalised: wild type 0, dead -1); higher = more abundant; growth selection in yeast, the domain comes from the species named. The note with it: Homo sapiens.
For the variant RELEAFAERFKQRRIKLDVTQADVGSALANLKIPGVGSLSQSTICRFESLTLSHNNMIALKPILQAWLEEAEGAQREKMNKP [G18D], the abundance fitness is -0.394 ± 0.12.

In the case of RELEAFAERFKQRRIKLKVTQADVGSALANLKIPGVGSLSQSTICRFESLTLSHNNMIALKPILQAWLEEAEGAQREKMNKP [G18K], the abundance fitness is -0.167 ± 0.21.

On to RELEAFAERFKQRRIKLFVTQADVGSALANLKIPGVGSLSQSTICRFESLTLSHNNMIALKPILQAWLEEAEGAQREKMNKP [G18F], for which the abundance fitness was -0.663 ± 0.32. Under RELEAFAERFKQRRIKLMVTQADVGSALANLKIPGVGSLSQSTICRFESLTLSHNNMIALKPILQAWLEEAEGAQREKMNKP [G18M] stands -0.639 ± 0.48; under RELEAFAERFKQRRIKLRVTQADVGSALANLKIPGVGSLSQSTICRFESLTLSHNNMIALKPILQAWLEEAEGAQREKMNKP [G18R], -0.231 ± 0.15. In the case of RELEAFAERFKQRRIKLTVTQADVGSALANLKIPGVGSLSQSTICRFESLTLSHNNMIALKPILQAWLEEAEGAQREKMNKP [G18T], the abundance fitness is -0.91 ± 0.49. The result for RELEAFAERFKQRRIKLEVTQADVGSALANLKIPGVGSLSQSTICRFESLTLSHNNMIALKPILQAWLEEAEGAQREKMNKP [G18E] reads -0.332 ± 0.13. Under RELEAFAERFKQRRIKLSVTQADVGSALANLKIPGVGSLSQSTICRFESLTLSHNNMIALKPILQAWLEEAEGAQREKMNKP [G18S] stands -0.241 ± 0.1; under RELEAFAERFKQRRIKLAVTQADVGSALANLKIPGVGSLSQSTICRFESLTLSHNNMIALKPILQAWLEEAEGAQREKMNKP [G18A], -0.268 ± 0.17.

As to RELEAFAERFKQRRIKLLVTQADVGSALANLKIPGVGSLSQSTICRFESLTLSHNNMIALKPILQAWLEEAEGAQREKMNKP [G18L], the abundance fitness is -0.724 ± 0.46. Under RELEAFAERFKQRRIKLCVTQADVGSALANLKIPGVGSLSQSTICRFESLTLSHNNMIALKPILQAWLEEAEGAQREKMNKP [G18C] stands -0.475 ± 0.32; under RELEAFAERFKQRRIKLGQTQADVGSALANLKIPGVGSLSQSTICRFESLTLSHNNMIALKPILQAWLEEAEGAQREKMNKP [V19Q], 0.11 ± 0.076. For RELEAFAERFKQRRIKLGCTQADVGSALANLKIPGVGSLSQSTICRFESLTLSHNNMIALKPILQAWLEEAEGAQREKMNKP [V19C], the abundance fitness is -0.104 ± 0.1. RELEAFAERFKQRRIKLGETQADVGSALANLKIPGVGSLSQSTICRFESLTLSHNNMIALKPILQAWLEEAEGAQREKMNKP [V19E]: the abundance fitness is -0.396 ± 0.081.

Regarding RELEAFAERFKQRRIKLGPTQADVGSALANLKIPGVGSLSQSTICRFESLTLSHNNMIALKPILQAWLEEAEGAQREKMNKP [V19P], the abundance fitness is -0.827 ± 0.25. Under RELEAFAERFKQRRIKLGSTQADVGSALANLKIPGVGSLSQSTICRFESLTLSHNNMIALKPILQAWLEEAEGAQREKMNKP [V19S] stands -0.062 ± 0.062; under RELEAFAERFKQRRIKLGMTQADVGSALANLKIPGVGSLSQSTICRFESLTLSHNNMIALKPILQAWLEEAEGAQREKMNKP [V19M], 0.096 ± 0.067. Consider RELEAFAERFKQRRIKLGHTQADVGSALANLKIPGVGSLSQSTICRFESLTLSHNNMIALKPILQAWLEEAEGAQREKMNKP [V19H], for which the abundance fitness is -0.14 ± 0.11.

With RELEAFAERFKQRRIKLGKTQADVGSALANLKIPGVGSLSQSTICRFESLTLSHNNMIALKPILQAWLEEAEGAQREKMNKP [V19K], the abundance fitness is 0.003 ± 0.061. Under RELEAFAERFKQRRIKLGGTQADVGSALANLKIPGVGSLSQSTICRFESLTLSHNNMIALKPILQAWLEEAEGAQREKMNKP [V19G] stands -0.55 ± 0.061; under RELEAFAERFKQRRIKLGRTQADVGSALANLKIPGVGSLSQSTICRFESLTLSHNNMIALKPILQAWLEEAEGAQREKMNKP [V19R], -0.019 ± 0.037; under RELEAFAERFKQRRIKLGLTQADVGSALANLKIPGVGSLSQSTICRFESLTLSHNNMIALKPILQAWLEEAEGAQREKMNKP [V19L], -0.016 ± 0.049.

For RELEAFAERFKQRRIKLGITQADVGSALANLKIPGVGSLSQSTICRFESLTLSHNNMIALKPILQAWLEEAEGAQREKMNKP [V19I], the abundance fitness was -0.012 ± 0.078. As for RELEAFAERFKQRRIKLGDTQADVGSALANLKIPGVGSLSQSTICRFESLTLSHNNMIALKPILQAWLEEAEGAQREKMNKP [V19D], the abundance fitness was -0.308 ± 0.14. Turning to RELEAFAERFKQRRIKPGVTQADVGSALANLKIPGVGSLSQSTICRFESLTLSHNNMIALKPILQAWLEEAEGAQREKMNKP [L17P], the abundance fitness was -1.06 ± 0.08. The result for RELEAFAERFKQRRIKSGVTQADVGSALANLKIPGVGSLSQSTICRFESLTLSHNNMIALKPILQAWLEEAEGAQREKMNKP [L17S] reads -0.608 ± 0.035. The result for RELEAFAERFKQRRIKWGVTQADVGSALANLKIPGVGSLSQSTICRFESLTLSHNNMIALKPILQAWLEEAEGAQREKMNKP [L17W] reads -0.336 ± 0.044; that for RELEAFAERFKQRRIKNGVTQADVGSALANLKIPGVGSLSQSTICRFESLTLSHNNMIALKPILQAWLEEAEGAQREKMNKP [L17N], -0.455 ± 0.05. The result for RELEAFAERFKQRRIKQGVTQADVGSALANLKIPGVGSLSQSTICRFESLTLSHNNMIALKPILQAWLEEAEGAQREKMNKP [L17Q] reads -0.668 ± 0.052; that for RELEAFAERFKQRRIKYGVTQADVGSALANLKIPGVGSLSQSTICRFESLTLSHNNMIALKPILQAWLEEAEGAQREKMNKP [L17Y], -0.33 ± 0.038.

Consider RELEAFAERFKQRRIKVGVTQADVGSALANLKIPGVGSLSQSTICRFESLTLSHNNMIALKPILQAWLEEAEGAQREKMNKP [L17V], for which the abundance fitness is -0.286 ± 0.036. The result for RELEAFAERFKQRRIKRGVTQADVGSALANLKIPGVGSLSQSTICRFESLTLSHNNMIALKPILQAWLEEAEGAQREKMNKP [L17R] reads -0.664 ± 0.046; that for RELEAFAERFKQRRIKMGVTQADVGSALANLKIPGVGSLSQSTICRFESLTLSHNNMIALKPILQAWLEEAEGAQREKMNKP [L17M], -0.072 ± 0.037; that for RELEAFAERFKQRRIKTGVTQADVGSALANLKIPGVGSLSQSTICRFESLTLSHNNMIALKPILQAWLEEAEGAQREKMNKP [L17T], -0.779 ± 0.058.
